Values quoted from earlier work, collected in patent US20230372299A1, “PREPARATION OF TEREVALEFIM AND FORMULATIONS THEREOF” (Angion Biomedica Corp., priority 2020, published 2023).

For “HGF/SF: pleiotropic growth factor that stimulates cell growth, cell motility, morphogenesis and angiogenesis”, the half-life is given as 3 to 5 min.
